Assay results from the nanobody polyreactivity screen of Harvey et al. (2022).

Assay: yeast display, Sf9 membrane polyspecificity reagent, FACS + sequencing; frameworks hold sequencing errors
Summary of the method: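 In a synthetic yeast display library (Saccharomyces cerevisiae BJ5465), nanobody expression was induced with galactose for 36–48 hours. FACS gates were set low and high (top ~1%) using anti-HA fluorescence for expression and streptavidin fluorescence for binding of the Sf9 membrane reagent. Each polyreactivity label is drawn from the gate of origin.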

Row | Sequence | polyreactivity (PSR sort gate)
1 | QVQLVESGGGLVQAGGSLRLSCAASGSTFPANAMGWYRQAPGKERELVATISWSGGRTYYADSVKGRFTISRDNAKNTVYLQMNSLKPEDTAVYYCAKGYYWLSTYGDSRYGYWGQGTQVTVSS | high polyreactivity
2 | QVQLVESGGGLVQAGGSLRLSCAASGRIFGANAMGWYRQAPGKERELVATITYGGTSTYYADSVKGRFTISRDNGKNTVYLQMNSLKPEDTAVSYCAADGYSVFAAILGEYFDSDYWGQGTQVTVSS | low polyreactivity
3 | QVQLVESGGGLVQAGGSLRLSCAASGFTFRTYAMGWYRQAPGKERELVSAITGSGGRTYYADSVKGRFTISRDYAKNTVYLQMNSLKPEDTAVYYCAADYVVPWAFWTFRFDYWGQGTQVTVSS | low polyreactivity
4 | QVQLVESGGGLDQAGGSLRLSCAASGSTFRYYTMGWYRQAHGKERELVAAISSRGGSTYYADSVKGRFTISRDNAKKTVYLQMNSLKPEDSAVYYCCALYPSWAQRGRDYWGQGTQVSVSS | high polyreactivity
5 | QVQLVQSRGGLVQAGGSLRLSCAASGSTFSGNAMGWYRPAPGKEREFVAAITSSGGSTYYADSVKGRFTISRDNAKNSVYLQMNSLKPEDTAVYYCATDNPFLWWFRPDQHGMGYWGQGTQVTVSS | low polyreactivity
6 | QVQLVESGGGLVQAGCSLRLSCAASGFTFDDYAMGWYRQAPGKERELVAAISWSGGSTYYADSVKGRFTISRDNAKNTVYLQMNSLKPEDTAVYYCAALRTGAQYSTMDYWGQGTQVTVSS | low polyreactivity
7 | QVQLVESGGGLVQAGGSLRLSCAASGSIFHYNAMGWYRQAPGKERELVAAISWRGGTTYYADSVKGRFTISRDNAKNTVYLQMNSLKPEDTAVYYCNRAYVYTYQRRDYDYWGQGTQVTVSS | low polyreactivity
8 | QVQLVESGGGLVQAGGSLRLSCAASGITFSRYAMGWYRQAPGKERELVAAITSSGGSTYYADSVKGRFTISRDNAKNTVYLQMNSLKPEDTAVYYCAATSYYTREQYYYWGQGTQVTVSS | high polyreactivity
9 | QVNLVESGGGLVLAGGSLRLSCAASGVTYGNNAMGWYRQAPGKEREFVATISRRGGSTYYADSVMGRFTISRDNAKNTVYLQMNRLKPEDTAVYYCDVDRAGIKFAAGYDYWGQGTQVTVSS | high polyreactivity
10 | QVQLVESGGGLVKAGGSLRLSCAASGRTFLRNAMGWYRQAPGKERELVATITRGGSTYYADSVKGRFTISRDNAKNTVYLQMNSLKPEDTAVYYCAKDITGCFRRPDYGYWGQGTQVTVSS | low polyreactivity
11 | QVLLQESVGGLVQAGGSLRLGCAASGTISPAYYMGRYQQEPGKVRQFVAAITYGTNTYYADSVKGRFTISRDNAKNTVYLQMNSLKPEDTAVYYCSATAGYNGAHDYWGQGTQVTVSS | low polyreactivity
12 | QVQLVESGGGLVQAGGSLRLSCADSGRTFVGNAMGWSRQAPGKERELVAAITSRTGSTYYADSVKGRFTISRDNAKNTVYLQMTSLTPEDTAVYYCATPYYQNVYSRKAYTYWGQGTQVTVSS | high polyreactivity
13 | QVQLVESGGGLVQAGGSLRLSCAATGSILNYYAMGWYRQAPGKERELVATISSGGNTHYADSVKGRFTISRDNAKNTVYLQMNSLKPEDTAVYYSAAVASKHWGRDYWGQGTQVTVSS | low polyreactivity
14 | QVQLVESGGGLVQAGGSLRLSCAASGNTFVYYAMGWYRQAPGKERELVAGISRRSGSTYYADSVKGRFTISRDNAKNTVYLQMNSLKPEDTAVYYCAIGRTYLDAEDYWGQGSQVTVSS | low polyreactivity
15 | QVQLVESGGGLVQAGGSLRLSCAASGSTFRGYAMGWYRQAPGKERELVAAITGSGDRTRYADSVKGRFTISRDNAKNTVYLQMNSLKPEDTAVYYCAKVWPHWAYYSWGQGTQVTVSS | high polyreactivity
16 | QVQLVESGGGLVQAGGSLRLSCAASGRTFGFNAMGWYRQAPGKERELVAAISSSSSSTYYADSVKGRFTISRDIAKNTVYLQMNSLKPEDTAVYYCAADIVYVTWFYYWGQGTQVTVSS | low polyreactivity
17 | QVQLEESGGCLVQAGGSLRLSCAASGFTFRGYAMGWYSQAPGKERELVAAISKRGGSTYYADSVKGRFTISRDNAKNTVYLLMNSLKPADTAVYYCNADYYIVGPPYSPTREDYWGQGTQVTVSS | high polyreactivity
